Assays:
[1] = biological target: T1, Epidermal growth factor receptor (EGFR), wild type (human, UniProt P00533 25-1210); test: immunofluorescence staining and confocal microscopy of SW48 cells treated with PEPD^G278D (25 nM), anti-His tag and anti-EGFR
T1 construct: whole, on cells; also called WT EGFR; ErbB1
Protocol: The cells were then washed with ice-cold PBS, fixed with 4% paraformaldehyde for 20 min at room temperature (RT), washed again with ice-cold PBS and blocked with 1% BSA in PBS for 1 h at RT. […] The cells were then examined with a BZ-X700 fluorescence microscope (Keyence) with a S PL FL ELWD ADM 40xC objective. Merged images from Z-stack were organized using the ImageJ software (NIH Image).
SW48 cells were cultured in serum-free medium.

[2] = biological target: Epidermal growth factor receptor (EGFR), wild type, P00533

B1: PEPD^G278D (recombinant, enzymatically inactive mutant of human peptidase D, glycine 278 replaced by aspartic acid) (enzyme)
chain: AAATGPSFWLGNETLKVPLALFALNRQRLCERLRKNPAVQAGSIVVLQGGEETQRYCTDTGVLFLQESFFHWAFGVTEPGCYGVIDVDTGKSTLFVPRLPASHATWMGKIHSKEHFKEKYAVDDVQYVDEIASVLTSQKPSVLLTLRGVNTDSGSVCREASFDGISKFEVNNTILHPEIVESRVFKTDMELEVLRYTNKISSEAHREVMKAVKVGMKEYGLESLFEHYCYSRGGMRHSSYTCICGSGENSAVLHYGHAGAPNDRTIQNGDMCLFDMDGEYYSVASDITCSFPRNGKFTADQKAVYEAVLLSSRAVMGAMKPGDWWPDIDRLADRIHLEELAHMGILSGSVDAMVQAHLGAVFMPHGLGHFLGIDVHDVGGYPEGVERIDEPGLRSLRTARHLQPGMVLTVEPGIYFIDHLLDEALADPARASFLNREVLQRFRGFGGVRIEEDVVVIDSGIELLTCVPRTVEEIEACMAGCDKAFTPFSGPK
notes: Made in E. coli and purified by nickel chromatography; The His tag is placed C-terminal by the plasmid's name only; also called PEPD^G278D-His; hPEPD-G278D; not shown: His tag from pBAD/TOPO-PEPD^G278D-His
**Q.** Does B1 bind [1]?
**A.** binds

**Q.** And the “expression and tyrosine phosphorylation of EGFR (Western blotting, 25 nM, 48 h)” value [2]?
**A.** PEPD^G278D obliterated both expression and tyrosine phosphorylation of EGFR and HER2 in SW48, HCT116 and HT29 cells

**Q.** And the “expression and tyrosine phosphorylation of HER2 (Western blotting, 25 nM, 48 h)” value (HER2, P04626)?
**A.** PEPD^G278D obliterated both expression and tyrosine phosphorylation of EGFR and HER2 in SW48, HCT116 and HT29 cells

From patent publication US20250009852A1, “DEPLETING EGFR AND HER2 OVERCOMES RESISTANCE TO EGFR INHIBITORS IN COLORECTAL CANCER” (Health Research, Inc., priority 2021, published 2025)
